In IntAct's records for PubMed 20498086:

B1: Nuclear pore complex protein Nup98-Nup96 (Homo sapiens), P52948 (parent)
chain: MFNKSFGTPFGGGTGGFGTTSTFGQNTGFGTTSGGAFGTSAFGSSNNTGGLFGNSQTKPGGLFGTSSFSQPATSTSTGFGFGTSTGTANTLFGTASTGTSLFSSQNNAFAQNKPTGFGNFGTSTSSGGLFGTTNTTSNPFGSTSGSLFGPSSFTAAPTGTTIKFNPPTGTDTMVKAGVSTNISTKHQCITAMKEYESKSLEELRLEDYQANRKGPQNQVGAGTTTGLFGSSPATSSATGLFSSSTTNSGFAYGQNKTAFGTSTTGFGTNPGGLFGQQNQQTTSLFSKPFGQATTTQNTGFSFGNTSTIGQPSTNTMGLFGVTQASQPGGLFGTATNTSTGTAFGTGTGLFGQTNTGFGAVGSTLFGNNKLTTFGSSTTSAPSFGTTSGGLFGNKPTLTLGTNTNTSNFGFGTNTSGNSIFGSKPAPGTLGTGLGAGFGTALGAGQASLFGNNQPKIGGPLGTGAFGAPGFNTTTATLGFGAPQAPVALTDPNASAAQQAVLQQHINSLTYSPFGDSPLFRNPMSDPKKKEERLKPTNPAAQKALTTPTHYKLTPRPATRVRPKALQTTGTAKSHLFDGLDDDEPSLANGAFMPKKSIKKLVLKNLNNSNLFSPVNRDSENLASPSEYPENGERFSFLSKPVDENHQQDGDEDSLVSHFYTNPIAKPIPQTPESAGNKHSNSNSVDDTIVALNMRAALRNGLEGSSEETSFHDESLQDDREEIENNSYHMHPAGIILTKVGYYTIPSMDDLAKITNEKGECIVSDFTIGRKGYGSIYFEGDVNLTNLNLDDIVHIRRKEVVVYLDDNQKPPVGEGLNRKAEVTLDGVWPTDKTSRCLIKSPDRLADINYEGRLEAVSRKQGAQFKEYRPETGSWVFKVSHFSKYGLQDSDEEEEEHPSKTSTKKLKTAPLPPASQTTPLQMALNGKPAPPPQSQSPEVEQLGRVVELDSDMVDITQEPVLDTMLEESMPEDQEPVSASTHIASSLGINPHVLQIMKASLLTDEEDVDMALDQRFSRLPSKADTSQEICSPRLPISASHSSKTRSLVGGLLQSKFTSGAFLSPSVSVQECRTPRAASLMNIPSTSSWSVPPPLTSVFTMPSPAPEVPLKTVGTRRQLGLVPREKSVTYGKGKLLMDMALFMGRSFRVGWGPNWTLANSGEQLNGSHELENHQIADSMEFGFLPNPVAVKPLTESPFKVHLEKLSLRQRKPDEDMKLYQTPLELKLKHSTVHVDELCPLIVPNLGVAVIHDYADWVKEASGDLPEAQIVKHWSLTWTLCEALWGHLKELDSQLNEPREYIQILERRRAFSRWLSCTATPQIEEEVSLTQKNSPVEAVFSYLTGKRISEACSLAQQSGDHRLALLLSQFVGSQSVRELLTMQLVDWHQLQADSFIQDERLRIFALLAGKPVWQLSEKKQINVCSQLDWKRSLAIHLWYLLPPTASISRALSMYEEAFQNTSDSDRYACSPLPSYLEGSGCVIAEEQNSQTPLRDVCFHLLKLYSDRHYDLNQLLEPRSITADPLDYRLSWHLWEVLRALNYTHLSAQCEGVLQASYAGQLESEGLWEWAIFVLLHIDNSGIREKAVRELLTRHCQLLETPESWAKETFLTQKLRVPAKWIHEAKAVRAHMESDKHLEALCLFKAEHWNRCHKLIIRHLASDAIINENYDYLKGFLEDLAPPERSSLIQDWETSGLVYLDYIRVIEMLRHIQQVDCSGNDLEQLHIKVTSLCSRIEQIQCYSAKDRLAQSDMAKRVANLLRVVLSLHHPPDRTSDSTPDPQRVPLRLLAPHIGRLPMPEDYAMDELRSLTQSYLRELAVGSL
partner: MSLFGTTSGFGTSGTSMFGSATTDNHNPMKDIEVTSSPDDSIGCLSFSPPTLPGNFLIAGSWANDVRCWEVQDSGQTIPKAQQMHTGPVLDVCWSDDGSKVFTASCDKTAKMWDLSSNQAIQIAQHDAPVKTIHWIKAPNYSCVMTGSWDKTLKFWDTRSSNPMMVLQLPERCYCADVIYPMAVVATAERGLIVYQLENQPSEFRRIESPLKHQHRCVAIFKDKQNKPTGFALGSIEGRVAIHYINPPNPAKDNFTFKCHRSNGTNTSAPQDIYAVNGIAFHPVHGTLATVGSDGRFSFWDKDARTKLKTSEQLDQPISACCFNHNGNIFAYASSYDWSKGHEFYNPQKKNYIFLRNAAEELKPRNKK

Variants of: B1
Details: with rae1l_human RAE1, P78406

effect of a mutation on the interaction | Variant
disrupting interaction | E201K;E202K
